Laboratory results from article PMC9143278.

B1: muIL-1β (commercial recombinant murine IL-1β) (ligand)
chain: VPIRQLHYRLRDEQQKSLVLSDPYELKALHLNGQNINQQVIFSMSFVQGEPSNDKIPVALGLKGKNLYLSCVMKDGTPTLQLESVDPKQYPKKKMEKRFVFNKIEVKSKVEFESAEFPNWYISTSQAEHKPVFLGNNSGQDIIDFTMESVSS

Molecular target: human and murine IL-1R1 on HEK-Blue IL-1R cells (human and murine)

Molecule	SEAP reporter (620 nm) in HEK-Blue IL-1R cells after overnight incubation; EC50, positive control	SEAP reporter (620 nm) in HEK-Blue IL-1R cells after overnight incubation; EC50 of a 3-fold dilution series from 100 ng/mL
huIL-1β (commercial recombinant human IL-1β) (from UniProt P01584 117-269) (ligand)	0.25	–
IL-1β(H30G)-Tag (ligand)	–	2.4
IL-1β(Q15G)-Tag (ligand)	–	5.8
IL-1β(N32G)-Tag (ligand)	–	0.89
IL-1β(R11G)-Tag (ligand)	–	2.7
IL-1β-Tag (His-TEV-muIL-1β-Tag, wild type) (from UniProt P10749 118-269) (ligand)	–	0.75
B1	0.21	–
